Target: enhanced green fluorescent protein-labeled BLM (BLM-eGFP) (not stated (Gallus gallus or human BLM cloned))
Assay: optical tweezers with confocal fluorescence microscopy

rupture force of the DNA tether bridged by the oligomeric BLM: < 300 pN
Substance: enhanced green fluorescent protein-labeled BLM (BLM-eGFP) (domain or fragment)
